From patent US20240309103A1 (Regeneron, published 2024)

How the values were obtained:
[1] = molecular target: T1, mfNPR1-mFc:hBNP complex (monkey; human, UniProt P16860 103-134); test: SPR, mAb captured, 25C
T1 construct: also called monkey NPR1 complexed to BNP
Description: (§1) Equilibrium dissociation constant (KD) for different NPR1 reagents binding to purified anti-NPR1 monoclonal antibodies (mAbs) were determined using a real-time surface plasmon resonance based Biacore 4000 biosensor. All binding studies were performed in 10 mM HEPES, 150 mM NaCl, 3 mM EDTA, and 0.05% v/v Surfactant Tween-20, pH 7.4 (HBS-ET) running buffer at 25° C. and 37° C. The Biacore CM5 sensor chip surface was first derivatized by amine coupling with either mouse anti-human Fc specific mAb (GE Healthcare, #BR100839) or goat anti-human Fcy specific polyclonal antibody (Jackson ImmunoResearch Laboratories, #BR-1008-39) to capture anti-NPR1 mAbs.

[2] = molecular target: T2, mfNPR1-mFc:hANP complex (monkey; human, UniProt P01160 124-151); test: SPR, mAb captured, 25C
T2 construct: also called monkey NPR1 complexed to ANP
Description: as §1

[3] = molecular target: T3, hNPR1-mFc:hBNP complex (human, UniProt P16860 103-134); test: SPR, mAb captured, 25C
T3 construct: also called human NPR1 complexed to BNP
Description: as §1

[4] = molecular target: T4, mfNPR1-mFc (monkey); test: SPR, mAb captured, 25C
T4 construct: also called dimeric monkey NPR1
T4 chain: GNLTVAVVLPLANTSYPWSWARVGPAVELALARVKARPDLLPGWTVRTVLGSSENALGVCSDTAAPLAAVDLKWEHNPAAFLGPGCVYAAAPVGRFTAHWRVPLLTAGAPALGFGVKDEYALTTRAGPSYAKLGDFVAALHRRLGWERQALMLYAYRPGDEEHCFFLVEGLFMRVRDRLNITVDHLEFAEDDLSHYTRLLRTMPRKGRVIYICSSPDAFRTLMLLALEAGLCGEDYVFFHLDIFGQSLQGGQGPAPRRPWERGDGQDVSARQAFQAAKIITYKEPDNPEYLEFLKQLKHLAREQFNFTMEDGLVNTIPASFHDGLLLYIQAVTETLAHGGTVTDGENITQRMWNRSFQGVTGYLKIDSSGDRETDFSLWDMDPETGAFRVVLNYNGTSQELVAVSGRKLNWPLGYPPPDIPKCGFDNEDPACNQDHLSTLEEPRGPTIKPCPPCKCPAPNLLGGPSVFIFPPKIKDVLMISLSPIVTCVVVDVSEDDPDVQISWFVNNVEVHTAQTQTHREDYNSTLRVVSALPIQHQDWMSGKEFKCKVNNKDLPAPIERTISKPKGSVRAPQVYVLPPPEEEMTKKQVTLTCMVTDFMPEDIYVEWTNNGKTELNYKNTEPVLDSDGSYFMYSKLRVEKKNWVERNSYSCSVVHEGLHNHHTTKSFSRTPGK
Description: as §1

[5] = molecular target: T5, hNPR1-mFc:hANP or hNPR1-hFc:hANP complex (human, UniProt P01160 124-151); test: SPR, mAb captured, 25C
T5 construct: also called human NPR1 complexed to ANP
Description: as §1

[6] = molecular target: T2, mfNPR1-mFc:hANP complex; test: SPR, mAb captured, 37C
Description: as §1

[7] = molecular target: T3, hNPR1-mFc:hBNP complex; test: SPR, mAb captured, 37C
Description: as §1

[8] = molecular target: T4, mfNPR1-mFc; test: SPR, mAb captured, 37C
Description: as §1

[9] = molecular target: T5, hNPR1-mFc:hANP or hNPR1-hFc:hANP complex; test: SPR, mAb captured, 37C
Description: as §1

B1: mAb25491 (antibody, human IgG4, V domains shown)
VH: QVQLVQSGAEVMKPGASVKVSCKASGYTFTGYYIHWVRQAPGQGLEWMGWITPNSGATNYAQKFQGRVTLTRDTSISTAYMELTRLKSDDTAVYYCARGGQLEFFYYYYGMDVWGQGTTVTVSS
VL: DIQMTQSPSSLSASAGDRVTITCRASQSIDSYLNWYQQKPGKAPKLLISATSGFQSGVPSRFSGSGSGTDFTLTISSLQPEDFGTYYCQQSYTTPITFGQGTRLEIK
- 100 nM Ag Bound (RU) [1]: 110 RU
- Kd [1]: 0.632 nM
- koff [1]: 3.71e-05 s⁻¹
- kon [1]: 58600 M⁻¹ s⁻¹
- t½ [1]: 5.19 h
- 100 nM Ag Bound (RU) [2]: 111 RU
- Kd [2]: 0.757 nM
- koff [2]: 4.55e-05 s⁻¹
- kon [2]: 60100 M⁻¹ s⁻¹
- t½ [2]: 4.23 h
- 100 nM Ag Bound (RU) [3]: 72 RU
- Kd [3]: 0.908 nM
- koff [3]: 4.96e-05 s⁻¹
- kon [3]: 54600 M⁻¹ s⁻¹
- t½ [3]: 3.88 h
- 100 nM Ag Bound (RU) [4]: 81 RU
- Kd [4]: 1.4 nM
- koff [4]: 7.54e-05 s⁻¹
- kon [4]: 54000 M⁻¹ s⁻¹
- t½ [4]: 2.55 h
- 100 nM Ag Bound (RU) [5]: 71 RU
- Kd [5]: 0.794 nM
- koff [5]: 4.15e-05 s⁻¹
- kon [5]: 52200 M⁻¹ s⁻¹
- t½ [5]: 4.64 h
- 100 nM Ag Bound (RU) [6]: 148 RU
- Kd [6]: 1.49 nM
- koff [6]: 0.000106 s⁻¹
- kon [6]: 71000 M⁻¹ s⁻¹
- t½ [6]: 1.82 h
- 100 nM Ag Bound (RU) [7]: 96 RU
- Kd [7]: 2.45 nM
- koff [7]: 0.000134 s⁻¹
- kon [7]: 54700 M⁻¹ s⁻¹
- t½ [7]: 1.44 h
- 100 nM Ag Bound (RU) [8]: 114 RU
- Kd [8]: 3.49 nM
- koff [8]: 0.000164 s⁻¹
- kon [8]: 47000 M⁻¹ s⁻¹
- t½ [8]: 1.17 h
- 100 nM Ag Bound (RU) [9]: 96 RU
- Kd [9]: 1.95 nM
- koff [9]: 0.000111 s⁻¹
- kon [9]: 56900 M⁻¹ s⁻¹
- t½ [9]: 1.73 h

B2: mAb25498 (antibody, human IgG4, V domains shown)
VH: QVQLVESGGGVVQPGRSLRLSCVASGFTFSSYGMVWVRQTPGKGLEWVAVIWHDGTNNYYADSVKGRFTISRDNSKNTLYLQMNSLRAEDTAVYYCAREPWLVRGYYYYAMDVWGQGTTVTVSS
VL: not shown
- 100 nM Ag Bound (RU) [1]: 81 RU
- Kd [1]: 2.53 nM
- koff [1]: 0.000109 s⁻¹
- kon [1]: 43200 M⁻¹ s⁻¹
- t½ [1]: 1.77 h
- 100 nM Ag Bound (RU) [2]: 81 RU
- Kd [2]: 2.68 nM
- koff [2]: 0.000112 s⁻¹
- kon [2]: 41900 M⁻¹ s⁻¹
- t½ [2]: 1.72 h
- 100 nM Ag Bound (RU) [3]: 55 RU
- Kd [3]: 5.28 nM
- koff [3]: 0.000256 s⁻¹
- kon [3]: 48500 M⁻¹ s⁻¹
- t½ [3]: 0.752 h
- 100 nM Ag Bound (RU) [4]: 128 RU
- Kd [4]: 2.45 nM
- koff [4]: 0.000177 s⁻¹
- kon [4]: 72000 M⁻¹ s⁻¹
- t½ [4]: 1.09 h
- 100 nM Ag Bound (RU) [5]: 52 RU
- Kd [5]: 6.93 nM
- koff [5]: 0.000317 s⁻¹
- kon [5]: 45800 M⁻¹ s⁻¹
- t½ [5]: 0.607 h
- 100 nM Ag Bound (RU) [6]: 114 RU
- Kd [6]: 8.89 nM
- koff [6]: 0.000445 s⁻¹
- kon [6]: 50100 M⁻¹ s⁻¹
- t½ [6]: 0.432 h
- 100 nM Ag Bound (RU) [7]: 76 RU
- Kd [7]: 17.9 nM
- koff [7]: 0.000948 s⁻¹
- kon [7]: 52900 M⁻¹ s⁻¹
- t½ [7]: 0.203 h
- 100 nM Ag Bound (RU) [8]: 170 RU
- Kd [8]: 4.06 nM
- koff [8]: 0.000372 s⁻¹
- kon [8]: 91600 M⁻¹ s⁻¹
- t½ [8]: 0.518 h
- 100 nM Ag Bound (RU) [9]: 74 RU
- Kd [9]: 13.6 nM
- koff [9]: 0.00072 s⁻¹
- kon [9]: 53000 M⁻¹ s⁻¹
- t½ [9]: 0.267 h

B3: mAb25479 (antibody, human IgG4, V domains shown)
VH: QVQLVQSGAEVKKPGASVKVSCKASGYTFTGYYIHWVRQAPGQGLEWMGWINPNSIGTNYAQKFQGRVTLTRDTSISTAYMELSSLRSDDTAVYYCARGGSSSYYYYYYGMDVWGQGTTVTVSS
VL: DIQMTQSPSSLSASVGDRVTITCRASQSIDNYLNWYQQKPGKAPKLLIYVASSLQSGVPSRFSGSGSGTDFTLTISSLQPEDFATYYCQQSYSTPLTFGGGTKVEIK
- 100 nM Ag Bound (RU) [1]: 86 RU
- Kd [1]: 2.95 nM
- koff [1]: 0.000113 s⁻¹
- kon [1]: 38100 M⁻¹ s⁻¹
- t½ [1]: 1.71 h
- 100 nM Ag Bound (RU) [2]: 86 RU
- Kd [2]: 2.44 nM
- koff [2]: 0.000103 s⁻¹
- kon [2]: 42000 M⁻¹ s⁻¹
- t½ [2]: 1.88 h
- 100 nM Ag Bound (RU) [3]: 50 RU
- Kd [3]: 4.21 nM
- koff [3]: 0.000123 s⁻¹
- kon [3]: 29200 M⁻¹ s⁻¹
- t½ [3]: 1.57 h
- 100 nM Ag Bound (RU) [4]: 54 RU
- Kd [4]: 16.2 nM
- koff [4]: 0.000507 s⁻¹
- kon [4]: 31200 M⁻¹ s⁻¹
- t½ [4]: 0.38 h
- 100 nM Ag Bound (RU) [5]: 49 RU
- Kd [5]: 3.53 nM
- koff [5]: 0.000109 s⁻¹
- kon [5]: 31000 M⁻¹ s⁻¹
- t½ [5]: 1.76 h
- 100 nM Ag Bound (RU) [6]: 138 RU
- Kd [6]: 4 nM
- koff [6]: 0.000219 s⁻¹
- kon [6]: 54700 M⁻¹ s⁻¹
- t½ [6]: 0.88 h
- 100 nM Ag Bound (RU) [7]: 85 RU
- Kd [7]: 3.83 nM
- koff [7]: 0.000163 s⁻¹
- kon [7]: 42700 M⁻¹ s⁻¹
- t½ [7]: 1.18 h
- 100 nM Ag Bound (RU) [8]: 89 RU
- Kd [8]: 28.1 nM
- koff [8]: 0.00108 s⁻¹
- kon [8]: 38200 M⁻¹ s⁻¹
- t½ [8]: 0.178 h
- 100 nM Ag Bound (RU) [9]: 84 RU
- Kd [9]: 2.7 nM
- koff [9]: 0.000134 s⁻¹
- kon [9]: 49700 M⁻¹ s⁻¹
- t½ [9]: 1.43 h

B4: mAb25497 (antibody, human IgG4, V domains shown)
VH: QVQLVQSGAEVKEPGASVKVSCKASGYTFTDYYIHWVRQAPGQGLEWMGWINLNSGGKNHAQKFQGRVTVTSDTSINTAYIELGRLRGDDTAVYYCSRGGGSHYYYYYHGMDVWGQGTTVTVSS
VL: DIQMTQSPSSLSASVGDRITITCRASHSIDSYLNWYQQKPGKAPKLLIYPASTLQSGVPSRFSGSGSGTDFTLTISSLQPEDSAIYYCQQSYSTPLTFGGGTKVEIK
- 100 nM Ag Bound (RU) [1]: 93 RU
- Kd [1]: 0.32 nM
- koff [1]: 4.47e-05 s⁻¹
- kon [1]: 140000 M⁻¹ s⁻¹
- t½ [1]: 4.31 h
- 100 nM Ag Bound (RU) [2]: 95 RU
- Kd [2]: 0.24 nM
- koff [2]: 3.75e-05 s⁻¹
- kon [2]: 156000 M⁻¹ s⁻¹
- t½ [2]: 5.13 h
- 100 nM Ag Bound (RU) [3]: 59 RU
- Kd [3]: 0.358 nM
- koff [3]: 5.49e-05 s⁻¹
- kon [3]: 153000 M⁻¹ s⁻¹
- t½ [3]: 3.51 h
- 100 nM Ag Bound (RU) [4]: 76 RU
- Kd [4]: 0.337 nM
- koff [4]: 5.79e-05 s⁻¹
- kon [4]: 172000 M⁻¹ s⁻¹
- t½ [4]: 3.32 h
- 100 nM Ag Bound (RU) [5]: 59 RU
- Kd [5]: 0.279 nM
- koff [5]: 4.56e-05 s⁻¹
- kon [5]: 163000 M⁻¹ s⁻¹
- t½ [5]: 4.22 h
- 100 nM Ag Bound (RU) [6]: 102 RU
- Kd [6]: 2.6 nM
- koff [6]: 0.000152 s⁻¹
- kon [6]: 58400 M⁻¹ s⁻¹
- t½ [6]: 1.27 h
- 100 nM Ag Bound (RU) [7]: 59 RU
- Kd [7]: 2.35 nM
- koff [7]: 0.000116 s⁻¹
- kon [7]: 49200 M⁻¹ s⁻¹
- t½ [7]: 1.66 h
- 100 nM Ag Bound (RU) [8]: 79 RU
- Kd [8]: 5.2 nM
- koff [8]: 0.000221 s⁻¹
- kon [8]: 42500 M⁻¹ s⁻¹
- t½ [8]: 0.872 h
- 100 nM Ag Bound (RU) [9]: 60 RU
- Kd [9]: 2.09 nM
- koff [9]: 0.000102 s⁻¹
- kon [9]: 48500 M⁻¹ s⁻¹
- t½ [9]: 1.9 h
